Experimental findings from patent US20140274782A1 (Stanford University, published 2014) are described below.

Common to all, as to experiment: ProtoArray, GST-treated control array;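 note: human protein microarray (about 9500 recombinant proteins) incubated overnight with GST alone plus SAM cofactor as the negative control for G9a SET domain methylation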
Assay [1] deals with T1, KIFC1-kinesin family member C1 (KIFC1) (human, UniProt Q9BW19 1-673).
T1 sequence (looked up): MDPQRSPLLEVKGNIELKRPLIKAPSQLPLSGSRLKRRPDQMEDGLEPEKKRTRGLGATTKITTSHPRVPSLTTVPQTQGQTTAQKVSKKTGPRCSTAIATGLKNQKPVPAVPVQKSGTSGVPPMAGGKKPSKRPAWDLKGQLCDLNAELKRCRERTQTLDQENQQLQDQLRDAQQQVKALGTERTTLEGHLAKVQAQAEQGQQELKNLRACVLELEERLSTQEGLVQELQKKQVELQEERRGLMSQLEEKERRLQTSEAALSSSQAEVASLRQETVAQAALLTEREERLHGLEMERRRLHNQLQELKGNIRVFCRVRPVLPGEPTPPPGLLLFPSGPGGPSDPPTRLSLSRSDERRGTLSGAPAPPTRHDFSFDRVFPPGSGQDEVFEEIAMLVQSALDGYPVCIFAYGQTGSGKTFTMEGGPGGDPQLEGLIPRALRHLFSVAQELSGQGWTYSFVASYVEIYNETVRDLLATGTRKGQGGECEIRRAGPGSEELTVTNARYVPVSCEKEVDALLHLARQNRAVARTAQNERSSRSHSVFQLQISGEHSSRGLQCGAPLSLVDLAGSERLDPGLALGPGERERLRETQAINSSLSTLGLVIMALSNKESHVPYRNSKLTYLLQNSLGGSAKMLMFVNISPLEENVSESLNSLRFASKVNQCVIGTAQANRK

The target of assay [2] is C10orf83-chromosome 10 open reading frame 83 (C10orf83) (human, UniProt Q8NDC4 1-146, limits assumed).
Sequence of C10orf83-chromosome 10 open reading frame 83 (C10orf83) (Q8NDC4 whole entry): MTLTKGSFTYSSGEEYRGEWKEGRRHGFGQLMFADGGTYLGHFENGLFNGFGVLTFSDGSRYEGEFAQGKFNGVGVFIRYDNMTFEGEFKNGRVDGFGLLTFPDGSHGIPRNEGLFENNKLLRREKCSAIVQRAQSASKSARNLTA
For assay [3], the target named is T2, HIC2-Hypermethylated in cancer 2 protein (human, UniProt Q96JB3 1-615, limits assumed).
T2 sequence (looked up): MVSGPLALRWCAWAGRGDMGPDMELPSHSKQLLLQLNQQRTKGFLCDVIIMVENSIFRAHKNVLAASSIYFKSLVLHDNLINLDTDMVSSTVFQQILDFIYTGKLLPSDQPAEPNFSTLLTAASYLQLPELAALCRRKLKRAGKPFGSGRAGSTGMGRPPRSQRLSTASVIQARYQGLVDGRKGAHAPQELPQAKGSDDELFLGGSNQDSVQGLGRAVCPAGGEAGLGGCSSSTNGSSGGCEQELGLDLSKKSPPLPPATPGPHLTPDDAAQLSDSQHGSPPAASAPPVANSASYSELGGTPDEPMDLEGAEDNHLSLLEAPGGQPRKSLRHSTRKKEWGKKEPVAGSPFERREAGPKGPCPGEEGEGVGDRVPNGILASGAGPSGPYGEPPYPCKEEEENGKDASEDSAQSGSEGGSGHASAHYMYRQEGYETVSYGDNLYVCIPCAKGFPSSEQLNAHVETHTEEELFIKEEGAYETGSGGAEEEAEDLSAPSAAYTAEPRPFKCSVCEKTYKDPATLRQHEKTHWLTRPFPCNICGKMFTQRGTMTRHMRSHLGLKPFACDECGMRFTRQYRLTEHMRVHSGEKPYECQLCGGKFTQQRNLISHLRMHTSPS

The target in assay [4] is T3, SMYD3-SET and MYND domain containing 3 (SMYD3) (human, UniProt Q9H7B4 1-428, limits assumed).
T3 sequence (looked up): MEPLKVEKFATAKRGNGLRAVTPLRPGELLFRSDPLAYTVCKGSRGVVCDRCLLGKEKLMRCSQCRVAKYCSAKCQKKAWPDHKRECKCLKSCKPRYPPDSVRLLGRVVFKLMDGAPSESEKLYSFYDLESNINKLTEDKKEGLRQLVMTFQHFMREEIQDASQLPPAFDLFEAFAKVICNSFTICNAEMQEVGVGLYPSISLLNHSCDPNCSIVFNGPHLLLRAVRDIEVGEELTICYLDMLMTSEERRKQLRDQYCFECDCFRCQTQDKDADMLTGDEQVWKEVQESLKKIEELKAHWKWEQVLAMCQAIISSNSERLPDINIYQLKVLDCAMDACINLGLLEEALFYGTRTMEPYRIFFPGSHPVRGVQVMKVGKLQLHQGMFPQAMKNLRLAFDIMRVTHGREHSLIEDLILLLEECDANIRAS

Assay [5] has as its target SAR1B-SAR1 gene homolog B (S. cerevisiae) (SAR1B), transcript variant 2 (human, UniProt Q9Y6B6 1-198).
In assay [6] the target is T4, MGC10433-RNA-binding protein 42 (human, UniProt Q9BTD8 1-480, limits assumed).
T4 sequence (looked up): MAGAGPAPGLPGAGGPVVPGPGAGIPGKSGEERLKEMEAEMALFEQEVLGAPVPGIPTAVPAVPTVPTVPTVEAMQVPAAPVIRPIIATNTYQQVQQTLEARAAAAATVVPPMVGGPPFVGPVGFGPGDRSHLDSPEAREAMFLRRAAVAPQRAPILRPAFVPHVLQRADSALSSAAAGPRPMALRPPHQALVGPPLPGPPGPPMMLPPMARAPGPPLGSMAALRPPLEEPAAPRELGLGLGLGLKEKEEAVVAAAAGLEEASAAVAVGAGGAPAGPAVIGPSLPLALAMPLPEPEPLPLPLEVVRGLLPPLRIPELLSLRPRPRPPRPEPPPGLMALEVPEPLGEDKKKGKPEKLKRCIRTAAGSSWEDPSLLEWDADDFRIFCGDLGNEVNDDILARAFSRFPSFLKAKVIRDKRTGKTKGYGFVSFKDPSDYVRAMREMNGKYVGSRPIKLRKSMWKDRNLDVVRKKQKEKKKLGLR

In assay [7] the target is TTC27-Tetratricopeptide repeat protein 27 (human, UniProt Q6P3X3 1-843).
Assay [8] deals with T5, BLCAP-bladder cancer associated protein (BLCAP) (human, UniProt P62952 1-87).
T5 sequence (looked up): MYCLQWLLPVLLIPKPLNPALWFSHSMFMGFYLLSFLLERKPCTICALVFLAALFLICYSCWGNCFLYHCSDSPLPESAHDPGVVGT

Sequence of SAR1B-SAR1 gene homolog B (S. cerevisiae) (SAR1B), transcript variant 2 (Q9Y6B6 whole entry, change not shown): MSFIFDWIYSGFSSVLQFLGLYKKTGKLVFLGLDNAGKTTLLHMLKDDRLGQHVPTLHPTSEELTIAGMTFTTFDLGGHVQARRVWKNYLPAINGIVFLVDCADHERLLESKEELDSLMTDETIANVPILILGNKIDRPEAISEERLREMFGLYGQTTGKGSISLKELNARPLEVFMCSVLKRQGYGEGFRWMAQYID

B1: 3× Flag-3×MBT (designed binder)
chain: EEWSSSQPATGEKKECWSWESYLEEQKAITAPVSLFQDSQAVTHNKNGFKLGMKLEGIDPQHPSMYFILTVAEVCGYRLRLHFDGYSECHDFWVNANSPDIHPAGWFEKTGHKLQPPKGYKEEEFSWSQYLRSTRAQAAPKHLFVSQSHSPPPLGFQVGMKLEAVDRMNPSLVCVASVTDVVDSRFLVHFDNWDDTYDYWCDPSSPYIHPVGWCQKQGKPLTPPQDYPDPDNFCWEKYLEETGASAVPTWAFKVRPPHSFLVNMKLEAVDRRNPALIRVASVEDVEDHRIKIHFDGWSHGYDFWIDADHPDIHPAGWCSKTGHPLQPPLGPREPSSASPGG
notes: also called Flag-tagged 3×MBT; 3xFlag-3xMBT; not shown: made by PreScission cleavage of GST-3× Flag-3×MBT
With B1, the “GST Average SNR” value in assay [1] was 0.745; in assay [2], 0.742; in assay [3] it was 0.588; in assay [4], 1.3; in assay [5], 0.558; in assay [6] it was -0.357. For the same molecule, the “GST Average SNR” value in assay [7] was found to be 0.496; in assay [8], 0.932.
